Laboratory results as given in patent publication US20200087347 (published 2020).
[ ]: non-standard residue; d: D form.

How the values were obtained:
Test in all cases: competition
integrin αvβ6 = biological target: T1, integrin αvβ6 (human, UniProt P06756)
T1 chain 1: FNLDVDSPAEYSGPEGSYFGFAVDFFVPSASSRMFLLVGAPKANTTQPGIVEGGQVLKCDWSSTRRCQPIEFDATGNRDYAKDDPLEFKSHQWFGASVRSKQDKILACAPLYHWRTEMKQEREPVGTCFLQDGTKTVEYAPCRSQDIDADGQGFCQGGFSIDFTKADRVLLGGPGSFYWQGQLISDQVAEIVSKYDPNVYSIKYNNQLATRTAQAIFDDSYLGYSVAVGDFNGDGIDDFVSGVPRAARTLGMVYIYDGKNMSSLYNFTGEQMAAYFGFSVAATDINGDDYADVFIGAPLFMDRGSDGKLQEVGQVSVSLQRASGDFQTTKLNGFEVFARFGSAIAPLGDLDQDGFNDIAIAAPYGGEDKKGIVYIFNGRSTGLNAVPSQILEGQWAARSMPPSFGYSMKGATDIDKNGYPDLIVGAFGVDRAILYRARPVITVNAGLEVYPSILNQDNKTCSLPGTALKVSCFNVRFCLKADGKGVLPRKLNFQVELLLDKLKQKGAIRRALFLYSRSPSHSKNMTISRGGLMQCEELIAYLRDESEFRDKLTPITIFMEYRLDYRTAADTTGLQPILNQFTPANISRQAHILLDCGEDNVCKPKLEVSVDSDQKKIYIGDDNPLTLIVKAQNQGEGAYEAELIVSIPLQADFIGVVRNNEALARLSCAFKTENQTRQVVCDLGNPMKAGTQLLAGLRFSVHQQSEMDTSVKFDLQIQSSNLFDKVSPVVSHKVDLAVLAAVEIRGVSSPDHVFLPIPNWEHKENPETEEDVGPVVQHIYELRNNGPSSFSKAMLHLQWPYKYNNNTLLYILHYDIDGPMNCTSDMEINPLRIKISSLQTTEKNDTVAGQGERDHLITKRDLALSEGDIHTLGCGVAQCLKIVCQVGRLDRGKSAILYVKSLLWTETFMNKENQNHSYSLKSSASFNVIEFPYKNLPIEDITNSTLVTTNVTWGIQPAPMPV
T1 chain 2: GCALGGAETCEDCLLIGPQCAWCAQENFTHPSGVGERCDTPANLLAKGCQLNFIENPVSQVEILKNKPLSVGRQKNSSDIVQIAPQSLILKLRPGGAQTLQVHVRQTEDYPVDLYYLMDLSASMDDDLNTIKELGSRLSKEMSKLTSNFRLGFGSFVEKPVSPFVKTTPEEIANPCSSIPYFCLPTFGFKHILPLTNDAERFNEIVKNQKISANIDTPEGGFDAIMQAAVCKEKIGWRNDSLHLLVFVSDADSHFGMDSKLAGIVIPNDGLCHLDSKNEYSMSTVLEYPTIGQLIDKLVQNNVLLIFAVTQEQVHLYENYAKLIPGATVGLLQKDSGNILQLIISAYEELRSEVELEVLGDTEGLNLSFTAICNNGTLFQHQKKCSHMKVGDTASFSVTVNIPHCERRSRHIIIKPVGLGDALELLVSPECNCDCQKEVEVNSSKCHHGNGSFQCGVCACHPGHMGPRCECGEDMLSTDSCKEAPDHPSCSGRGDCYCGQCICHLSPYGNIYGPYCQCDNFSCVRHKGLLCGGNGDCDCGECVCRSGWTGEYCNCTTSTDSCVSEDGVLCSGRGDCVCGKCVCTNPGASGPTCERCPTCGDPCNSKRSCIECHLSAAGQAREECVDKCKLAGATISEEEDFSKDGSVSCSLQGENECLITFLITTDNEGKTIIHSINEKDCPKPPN

integrin αvβ3 = biological target: T2, integrin αvβ3 (human, UniProt P06756)
T2 chain 1: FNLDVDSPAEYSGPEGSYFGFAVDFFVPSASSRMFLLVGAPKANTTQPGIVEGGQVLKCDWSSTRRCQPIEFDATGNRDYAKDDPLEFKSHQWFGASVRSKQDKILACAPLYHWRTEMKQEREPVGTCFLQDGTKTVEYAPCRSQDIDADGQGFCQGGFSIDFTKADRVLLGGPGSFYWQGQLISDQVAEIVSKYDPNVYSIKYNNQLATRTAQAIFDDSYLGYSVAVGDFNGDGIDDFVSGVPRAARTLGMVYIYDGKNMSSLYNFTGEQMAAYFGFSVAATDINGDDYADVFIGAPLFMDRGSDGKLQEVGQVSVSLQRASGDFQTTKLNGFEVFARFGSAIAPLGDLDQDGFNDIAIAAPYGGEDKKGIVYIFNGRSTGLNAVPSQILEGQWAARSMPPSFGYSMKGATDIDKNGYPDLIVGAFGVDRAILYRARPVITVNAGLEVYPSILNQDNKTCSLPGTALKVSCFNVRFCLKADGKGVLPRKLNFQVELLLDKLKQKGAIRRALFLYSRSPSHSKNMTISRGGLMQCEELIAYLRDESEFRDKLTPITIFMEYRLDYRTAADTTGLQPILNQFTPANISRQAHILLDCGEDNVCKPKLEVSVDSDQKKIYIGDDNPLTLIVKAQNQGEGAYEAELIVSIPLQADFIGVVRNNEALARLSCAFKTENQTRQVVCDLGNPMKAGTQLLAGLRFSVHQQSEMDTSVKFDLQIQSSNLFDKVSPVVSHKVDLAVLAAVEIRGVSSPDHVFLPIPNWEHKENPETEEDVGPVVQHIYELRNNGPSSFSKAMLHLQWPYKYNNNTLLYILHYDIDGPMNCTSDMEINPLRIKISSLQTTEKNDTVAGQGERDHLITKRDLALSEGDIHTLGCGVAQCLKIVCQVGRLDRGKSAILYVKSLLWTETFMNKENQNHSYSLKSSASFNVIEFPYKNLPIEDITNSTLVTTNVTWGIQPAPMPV
T2 chain 2: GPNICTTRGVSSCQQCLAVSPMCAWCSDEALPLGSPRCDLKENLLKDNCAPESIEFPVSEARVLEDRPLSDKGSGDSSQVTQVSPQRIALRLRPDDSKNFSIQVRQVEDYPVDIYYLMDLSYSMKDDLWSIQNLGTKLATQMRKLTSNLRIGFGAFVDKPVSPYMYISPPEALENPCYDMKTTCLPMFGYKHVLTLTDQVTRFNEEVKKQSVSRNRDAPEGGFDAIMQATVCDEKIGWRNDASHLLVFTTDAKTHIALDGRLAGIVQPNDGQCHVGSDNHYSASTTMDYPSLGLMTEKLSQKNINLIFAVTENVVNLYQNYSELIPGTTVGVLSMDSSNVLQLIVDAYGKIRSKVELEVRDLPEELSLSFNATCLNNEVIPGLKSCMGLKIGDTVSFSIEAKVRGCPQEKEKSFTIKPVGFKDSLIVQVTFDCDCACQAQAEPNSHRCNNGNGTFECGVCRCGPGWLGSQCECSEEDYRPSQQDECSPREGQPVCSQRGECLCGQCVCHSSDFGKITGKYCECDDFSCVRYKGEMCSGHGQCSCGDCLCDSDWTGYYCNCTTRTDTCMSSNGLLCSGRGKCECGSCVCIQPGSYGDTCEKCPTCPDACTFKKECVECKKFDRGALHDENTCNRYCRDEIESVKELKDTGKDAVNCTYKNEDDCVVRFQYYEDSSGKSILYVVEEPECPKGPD

integrin α5β1 = integrin α5β1 (human, UniProt P08648)
integrin α5β1, sequence (P08648 42-1049, chain 1 of 2): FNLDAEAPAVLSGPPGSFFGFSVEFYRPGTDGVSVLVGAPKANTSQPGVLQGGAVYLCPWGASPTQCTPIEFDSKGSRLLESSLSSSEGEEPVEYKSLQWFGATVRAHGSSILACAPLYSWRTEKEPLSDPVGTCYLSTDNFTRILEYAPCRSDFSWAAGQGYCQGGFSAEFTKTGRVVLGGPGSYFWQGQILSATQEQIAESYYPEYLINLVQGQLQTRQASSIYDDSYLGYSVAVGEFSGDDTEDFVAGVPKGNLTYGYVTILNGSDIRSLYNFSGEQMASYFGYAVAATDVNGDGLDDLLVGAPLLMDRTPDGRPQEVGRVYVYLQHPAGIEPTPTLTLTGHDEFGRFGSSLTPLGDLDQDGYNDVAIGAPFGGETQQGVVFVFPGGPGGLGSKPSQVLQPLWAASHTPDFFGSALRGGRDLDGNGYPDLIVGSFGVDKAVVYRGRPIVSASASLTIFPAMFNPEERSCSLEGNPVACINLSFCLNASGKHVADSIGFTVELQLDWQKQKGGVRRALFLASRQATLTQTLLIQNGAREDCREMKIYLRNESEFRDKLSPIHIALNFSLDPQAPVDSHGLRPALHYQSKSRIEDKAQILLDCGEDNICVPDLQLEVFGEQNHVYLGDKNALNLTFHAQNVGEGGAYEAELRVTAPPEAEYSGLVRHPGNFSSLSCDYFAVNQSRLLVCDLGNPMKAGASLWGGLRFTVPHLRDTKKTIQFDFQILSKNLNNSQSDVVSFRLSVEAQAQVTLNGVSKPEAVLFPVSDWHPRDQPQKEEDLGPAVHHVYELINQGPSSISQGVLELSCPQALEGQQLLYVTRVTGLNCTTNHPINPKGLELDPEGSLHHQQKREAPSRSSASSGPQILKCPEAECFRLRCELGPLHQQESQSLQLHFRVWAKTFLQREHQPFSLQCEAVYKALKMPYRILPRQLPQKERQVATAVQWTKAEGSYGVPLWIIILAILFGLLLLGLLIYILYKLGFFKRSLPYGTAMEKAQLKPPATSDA
integrin α5β1, sequence (chain, as listed by the source, chain 2 of 2): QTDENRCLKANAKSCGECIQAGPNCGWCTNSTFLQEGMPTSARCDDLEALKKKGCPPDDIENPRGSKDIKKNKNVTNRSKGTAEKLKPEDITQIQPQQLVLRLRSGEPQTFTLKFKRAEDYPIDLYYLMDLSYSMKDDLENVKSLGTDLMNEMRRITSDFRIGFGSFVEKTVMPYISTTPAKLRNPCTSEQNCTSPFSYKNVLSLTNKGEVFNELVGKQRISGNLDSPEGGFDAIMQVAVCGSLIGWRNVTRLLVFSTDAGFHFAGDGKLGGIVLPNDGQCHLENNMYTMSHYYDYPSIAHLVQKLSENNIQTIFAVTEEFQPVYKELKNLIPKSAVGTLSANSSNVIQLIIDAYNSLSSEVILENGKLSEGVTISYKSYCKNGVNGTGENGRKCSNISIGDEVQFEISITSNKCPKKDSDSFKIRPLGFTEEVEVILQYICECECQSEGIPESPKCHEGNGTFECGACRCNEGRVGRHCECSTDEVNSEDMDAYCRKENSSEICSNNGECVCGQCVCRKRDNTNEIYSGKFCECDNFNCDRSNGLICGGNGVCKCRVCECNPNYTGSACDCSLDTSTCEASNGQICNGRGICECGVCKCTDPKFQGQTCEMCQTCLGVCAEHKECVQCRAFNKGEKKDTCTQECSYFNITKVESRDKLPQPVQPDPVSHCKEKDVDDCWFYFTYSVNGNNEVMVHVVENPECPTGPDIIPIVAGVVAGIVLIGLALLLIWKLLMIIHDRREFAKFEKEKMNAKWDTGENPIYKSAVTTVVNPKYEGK

integrin αvβ5 = biological target: T3, integrin αvβ5 (human, UniProt P06756)
T3 chain 1: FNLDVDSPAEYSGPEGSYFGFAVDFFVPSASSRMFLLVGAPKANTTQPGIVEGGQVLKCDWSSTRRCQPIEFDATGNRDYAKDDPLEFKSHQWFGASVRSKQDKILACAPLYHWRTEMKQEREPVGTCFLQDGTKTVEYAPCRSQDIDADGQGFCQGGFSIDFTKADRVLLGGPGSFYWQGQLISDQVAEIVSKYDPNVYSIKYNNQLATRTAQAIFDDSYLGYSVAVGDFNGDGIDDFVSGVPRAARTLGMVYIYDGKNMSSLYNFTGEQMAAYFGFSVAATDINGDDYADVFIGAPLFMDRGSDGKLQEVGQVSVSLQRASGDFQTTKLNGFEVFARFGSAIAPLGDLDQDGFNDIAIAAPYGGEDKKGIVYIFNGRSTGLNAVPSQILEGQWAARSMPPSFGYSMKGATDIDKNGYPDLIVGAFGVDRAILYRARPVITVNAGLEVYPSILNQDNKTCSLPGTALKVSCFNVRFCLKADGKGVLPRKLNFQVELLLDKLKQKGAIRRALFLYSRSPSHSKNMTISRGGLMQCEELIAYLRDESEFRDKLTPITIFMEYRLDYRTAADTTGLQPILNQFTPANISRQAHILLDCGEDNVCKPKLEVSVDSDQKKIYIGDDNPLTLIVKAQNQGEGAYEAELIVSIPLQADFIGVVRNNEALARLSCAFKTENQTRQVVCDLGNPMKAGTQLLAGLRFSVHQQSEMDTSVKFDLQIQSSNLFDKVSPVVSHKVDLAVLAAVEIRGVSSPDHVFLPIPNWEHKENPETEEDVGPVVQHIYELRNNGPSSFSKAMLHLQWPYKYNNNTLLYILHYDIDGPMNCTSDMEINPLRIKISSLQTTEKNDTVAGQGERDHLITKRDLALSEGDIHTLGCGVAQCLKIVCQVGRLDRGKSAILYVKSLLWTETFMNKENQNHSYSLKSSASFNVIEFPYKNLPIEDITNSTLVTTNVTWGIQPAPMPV
T3 chain 2: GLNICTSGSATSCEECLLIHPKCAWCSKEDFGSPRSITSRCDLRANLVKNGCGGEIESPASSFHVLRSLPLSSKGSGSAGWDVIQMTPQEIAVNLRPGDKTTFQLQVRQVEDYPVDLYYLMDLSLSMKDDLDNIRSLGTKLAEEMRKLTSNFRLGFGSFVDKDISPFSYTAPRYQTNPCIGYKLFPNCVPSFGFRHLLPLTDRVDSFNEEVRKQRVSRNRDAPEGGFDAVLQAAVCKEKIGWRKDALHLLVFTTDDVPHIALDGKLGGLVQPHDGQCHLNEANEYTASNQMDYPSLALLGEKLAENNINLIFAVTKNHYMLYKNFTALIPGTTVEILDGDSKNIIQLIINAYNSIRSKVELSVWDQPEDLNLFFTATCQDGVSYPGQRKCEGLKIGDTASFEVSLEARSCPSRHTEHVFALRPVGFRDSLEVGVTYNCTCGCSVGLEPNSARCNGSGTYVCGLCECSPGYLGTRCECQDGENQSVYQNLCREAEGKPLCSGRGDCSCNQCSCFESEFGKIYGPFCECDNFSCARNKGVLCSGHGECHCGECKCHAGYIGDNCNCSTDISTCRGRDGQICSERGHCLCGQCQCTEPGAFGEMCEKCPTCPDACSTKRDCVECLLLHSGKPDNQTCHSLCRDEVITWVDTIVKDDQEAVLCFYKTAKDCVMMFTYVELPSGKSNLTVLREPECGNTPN

integrin αvβ8 = biological target: T4, integrin αvβ8 (human, UniProt P06756)
T4 chain 1: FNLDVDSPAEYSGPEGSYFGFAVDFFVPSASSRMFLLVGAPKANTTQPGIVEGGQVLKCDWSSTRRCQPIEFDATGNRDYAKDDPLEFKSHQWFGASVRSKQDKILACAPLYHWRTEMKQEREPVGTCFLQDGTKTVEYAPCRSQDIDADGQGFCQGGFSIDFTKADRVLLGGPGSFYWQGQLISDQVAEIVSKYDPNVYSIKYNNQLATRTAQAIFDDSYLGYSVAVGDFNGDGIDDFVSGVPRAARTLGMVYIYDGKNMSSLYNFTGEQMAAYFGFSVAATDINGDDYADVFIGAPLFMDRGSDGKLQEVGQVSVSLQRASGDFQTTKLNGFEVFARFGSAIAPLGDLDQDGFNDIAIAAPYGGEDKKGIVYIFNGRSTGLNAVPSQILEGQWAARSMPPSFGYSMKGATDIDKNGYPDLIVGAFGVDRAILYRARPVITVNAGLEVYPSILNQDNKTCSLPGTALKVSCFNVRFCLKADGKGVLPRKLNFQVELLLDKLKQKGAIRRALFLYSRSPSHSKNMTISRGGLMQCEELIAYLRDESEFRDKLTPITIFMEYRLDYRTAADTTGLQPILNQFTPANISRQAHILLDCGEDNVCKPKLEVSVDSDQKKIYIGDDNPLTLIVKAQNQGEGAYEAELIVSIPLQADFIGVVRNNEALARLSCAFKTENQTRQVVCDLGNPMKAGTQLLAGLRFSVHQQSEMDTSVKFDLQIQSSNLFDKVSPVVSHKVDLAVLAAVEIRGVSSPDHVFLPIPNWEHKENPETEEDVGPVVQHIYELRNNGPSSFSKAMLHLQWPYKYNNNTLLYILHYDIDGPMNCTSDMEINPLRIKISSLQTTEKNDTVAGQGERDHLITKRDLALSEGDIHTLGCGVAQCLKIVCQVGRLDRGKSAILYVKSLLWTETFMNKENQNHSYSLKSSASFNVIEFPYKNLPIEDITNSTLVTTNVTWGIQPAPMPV
T4 chain 2: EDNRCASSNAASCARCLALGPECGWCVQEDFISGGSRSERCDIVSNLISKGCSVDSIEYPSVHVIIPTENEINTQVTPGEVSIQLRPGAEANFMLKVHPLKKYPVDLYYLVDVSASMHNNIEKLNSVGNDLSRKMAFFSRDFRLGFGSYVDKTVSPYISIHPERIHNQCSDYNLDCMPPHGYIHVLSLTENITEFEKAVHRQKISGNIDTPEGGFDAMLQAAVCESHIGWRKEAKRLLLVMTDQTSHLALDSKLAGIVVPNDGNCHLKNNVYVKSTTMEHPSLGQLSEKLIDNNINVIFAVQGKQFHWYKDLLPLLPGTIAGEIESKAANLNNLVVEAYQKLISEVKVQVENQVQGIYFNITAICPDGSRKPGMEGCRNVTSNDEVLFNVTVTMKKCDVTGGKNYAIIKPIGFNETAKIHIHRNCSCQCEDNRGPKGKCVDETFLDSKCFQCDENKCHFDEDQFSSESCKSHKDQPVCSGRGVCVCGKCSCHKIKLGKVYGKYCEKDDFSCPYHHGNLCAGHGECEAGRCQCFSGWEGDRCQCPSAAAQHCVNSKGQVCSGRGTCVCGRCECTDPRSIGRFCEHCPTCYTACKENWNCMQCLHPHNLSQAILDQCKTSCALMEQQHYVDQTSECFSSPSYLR

integrin αIIbβ3 = integrin αIIbβ3 (human, UniProt P08514)

- IC50 (integrin αvβ6): 210 nM
- IC50 (integrin αvβ3): > 1000 nM
- IC50 (integrin α5β1): > 1000 nM
- IC50 (integrin αvβ5): > 1000 nM
- IC50 (integrin αvβ8): 0.93 nM
- IC50 (integrin αIIbβ3): > 1000 nM
Binder: cyclo(RGDL[dP]PGL) [Compound 2]
